Source: patent US20150284431A1
Square brackets hold non-standard residues; d marks the D form. * marks the point of attachment. Butanoyl(4-Ph) = O=C(CCCc1ccccc1)*; Butanoyl(4-ethynyl) = C#CCCCC(=O)*

B1: 4-targeted triblock polymer (peptide, part only; not given: triblock polymer, part only)
peptide: HFRWGK
modifications: N-terminal 4-phenylbutyryl; DPhe at 2; Lys(hex-5-ynoyl) at 6 joined by a 1,2,3-triazole (click reaction) to the azide end of the PEG block of the triblock polymer; C-terminal amide
B2: 4-targeted crosslinked (XL) micelle (peptide, part only; not given: crosslinked triblock polymer carrier, part only)
peptide: {Butanoyl(4-Ph)}-H[dF]RWGK(Butanoyl(4-ethynyl))-NH2
modifications: also: micelle crosslinked with Fe(III), triblock polymer block lengths not given here
B3: 4-targeted micelles (peptide, part only; not given: triblock polymer carrier, part only)
peptide: HFRWGK
modifications: not fully specified; N-terminal 4-phenylbutyryl; DPhe at 2; Lys(hex-5-ynoyl) at 6 joined by a 1,2,3-triazole to the PEG block of the triblock polymer; C-terminal amide

Assays:
[1] = target: human melanocortin 1 receptor (human) (UniProt Q01726); assay: competition with Eu-NDP-alpha-MSH, Eu time-resolved fluorescence, HCT116/hMC1R cells; concentration normalized to the targeting group
human melanocortin 1 receptor (human), sequence (Q01726 whole entry): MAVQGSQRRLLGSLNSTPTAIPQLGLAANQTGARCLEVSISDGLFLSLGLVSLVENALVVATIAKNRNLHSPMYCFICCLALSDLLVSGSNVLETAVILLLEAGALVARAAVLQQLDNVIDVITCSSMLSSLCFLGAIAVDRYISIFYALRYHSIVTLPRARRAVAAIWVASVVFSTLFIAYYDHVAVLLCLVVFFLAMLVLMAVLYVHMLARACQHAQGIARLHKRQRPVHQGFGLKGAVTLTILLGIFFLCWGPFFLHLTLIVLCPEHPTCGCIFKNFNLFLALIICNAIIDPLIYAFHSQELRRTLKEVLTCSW

[2] = target: human melanocortin 1 receptor (human) (UniProt Q01726); assay: competition with Eu-NDP-alpha-MSH, time-resolved fluorescence; 10% ligand loading

Binder	Ki [1] [µM]	Ki [2] [µM]
B1	0.0256	
{Butanoyl(4-Ph)}-H[dF]RWGK(Butanoyl(4-ethynyl))-NH2 (peptide, part only; not given: triblock polymer carrier, part only, also: micelle not crosslinked, triblock polymer block lengths not given here) [4-targeted uncrosslinked (UXL) micelle]		0.012
B2		0.0029
B3	0.0115	
